# Measurements: the supplement of paper PMC10724198
# ± gives the standard deviation of the averaged measurements.
# Tested on: Saccharomyces cerevisiae
# Assay: protein stability index of tFT-peptide fusion (C-terminal peptide) (PSI (0-1 scale)); higher = more stable (slower turnover)
# Conditions: genetic background: wild type; temperature: 30 C
# 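Note: PSI is a weighted mean of sequencing reads over stability bins, variants kept only with over 10 reads, mCherry proximal and sfGFP distal, peptide attached via GGGS linker.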
row,Sequence,protein stability index
1,VSRGRSAKKSAI,0.695 ± 0.06
2,VSRTVLSSDHRG,0.752 ± 0.076
3,VSRYRQWGSWER,0.649 ± 0.013
4,VSSRHNCFRHGS,0.696 ± 0.039
5,VSTLAPPQLQFK,0.669 ± 0.081
6,VSVGCLFVVGRG,0.713 ± 0.039
7,VSWVYNFKKIRS,0.694 ± 0.078
8,VTCADEYYHSRR,0.686 ± 0.03
9,VTECLRQWERLG,0.545 ± 0.045
10,VTFTERIAIEWD,0.703 ± 0.054
11,VTGIDGGSLCLR,0.6842 ± 0.0059
12,VTGRTGGMWGAL,0.754 ± 0.085
13,VTKNRHRQTETQ,0.658 ± 0.036
14,VTLSPSLPGFPL,0.6839 ± 0.00089
15,VTLTPPVLYTSL,0.647 ± 0.059
16,VTVDLGCRATGE,0.675 ± 0.067
17,VTVGGAWSGTRG,0.647 ± 0.06
18,VTWNTLENMNLV,0.673 ± 0.032
19,VTYFIPVTNRAS,0.605 ± 0.0074
20,VVAERFADAKGS,0.653 ± 0.025
21,VVAVGHWFDGGV,0.623 ± 0.045
22,VVCFLVHGWGGW,0.638 ± 0.048
23,VVCLGGGVLPRV,0.654 ± 0.081

row,Sequence,protein stability index
1,VVCRDGLSSCVG,0.623 ± 0.019
2,VVCSSGFVSDPG,0.5582 ± 0.0049
3,VVDGGEHVCYRI,0.654 ± 0.082
4,VVFSPQFRLPVP,0.66 ± 0.024
5,VVGFVRPGMQGL,0.673 ± 0.052
6,VVGGVGLGLWKV,0.659 ± 0.097
7,VVGRTNRYAVPH,0.662 ± 0.061
8,VVILGSMHLCSV,0.561 ± 0.016
9,VVLFPILKLLSN,0.53 ± 0.015
10,VVLWLASGVGGG,0.75 ± 0.061
11,VVMLSLVALGRV,0.523 ± 0.026
12,VVQEIGGSVRRE,0.6814 ± 0.0035
13,VVRALSTQVCLP,0.645 ± 0.098
14,VVRFEGYVLGWG,0.647 ± 0.072
15,VVRKVALVALPL,0.574 ± 0.05
16,VVRLKRLPPCSS,0.699 ± 0.077
17,VVRSDFCFFFGI,0.754 ± 0.065
18,VVRWFGGGCVRG,0.682 ± 0.033
19,VVSGDAPVARRA,0.6781 ± 0.0056
20,VVSGSHSVLYGS,0.71 ± 0.028
21,VVSKMGFGAALV,0.654 ± 0.085
22,VVSRLCCTRIRQ,0.701 ± 0.04
23,VVSSAYRLKARP,0.696 ± 0.046

row,Sequence,protein stability index
1,VVSSFHYTSRQC,0.744 ± 0.1
2,VVTRANVRRDKM,0.672 ± 0.023
3,VVVCGSSVLVLT,0.555 ± 0.041
4,VVVLVGGGWVCV,0.51 ± 0.035
5,VVVSGGGQGFWL,0.757 ± 0.064
6,VVWGLGAGRMVW,0.656 ± 0.076
7,VVWRCCGRGAEG,0.6457 ± 0.0016
8,VVYFARGDNVYA,0.682 ± 0.05
9,VWCGVLVRSCWV,0.52 ± 0.0091
10,VWCVGRVGYEGE,0.783 ± 0.1
11,VWFDPHEFIVIA,0.59 ± 0.027
12,VWFGLLTTVNID,0.5657 ± 0.0048
13,VWGGLAVVTGWA,0.612 ± 0.073
14,VWGGLGGGVGRA,0.668 ± 0.014
15,VWGVCAVFGCAG,0.644 ± 0.12
16,VWKEPVQYSRQL,0.626 ± 0.051
17,VWLAGVMVGRFQ,0.5575 ± 0.0039
18,VWLWCDLSRGWI,0.733 ± 0.013
19,VWNLELFFTLAT,0.6331 ± 0.001
20,VWVVSGRGGWWG,0.6336 ± 0.0033
21,VWVWATGWGARG,0.7369 ± 0.0038
22,VYCIEFNRQWDA,0.693 ± 0.048
23,VYEGLRSGPRSL,0.718 ± 0.093

row,Sequence,protein stability index
1,VYEIQCGSNFKG,0.7 ± 0.052
2,VYHFPDLFPLGI,0.7078 ± 0.0027
3,VYKLDLEEENRS,0.654 ± 0.072
4,WAAWYPGEHPVP,0.755 ± 0.12
5,WAIPSSPQYKRA,0.676 ± 0.031
6,WARVESFTSKTQ,0.6028 ± 0.0045
7,WCLGLGCVWGGW,0.779 ± 0.092
8,WCRGVGSWRGRG,0.688 ± 0.008
9,WCVEGVWRVRGW,0.649 ± 0.044
10,WDFLLQGISSPR,0.767 ± 0.12
11,WDGWPTRWGGTG,0.705 ± 0.017
12,WEGAGGGFGLVV,0.712 ± 0.05
13,WELPNRANDLSH,0.769 ± 0.11
14,WENKKRMIRQKL,0.526 ± 0.016
15,WERGKGGLVMEG,0.646 ± 0.0067
16,WEWLQAKCFLSQ,0.688 ± 0.086
17,WFDVVALPCLSF,0.562 ± 0.0084
18,WFFSNLRRDCGG,0.735 ± 0.016
19,WFHPAPLCGPQS,0.662 ± 0.063
20,WFLCWGWGCGGA,0.673 ± 0.08
21,WFRPLSMLPPGF,0.701 ± 0.02
22,WGCFPGVVMGVS,0.594 ± 0.02
23,WGDDRIRVCVRG,0.611 ± 0.035

row,Sequence,protein stability index
1,WGFWLCSGNWST,0.725 ± 0.0088
2,WGGGGGGGAAGS,0.679 ± 0.08
3,WGGGRGLRVVGG,0.733 ± 0.092
4,WGGWGRVWVKLG,0.701 ± 0.05
5,WGIVGLRGSRVG,0.618 ± 0.018
6,WGMVFQVFRRRN,0.582 ± 0.018
7,WGPGGRRGVGHV,0.727 ± 0.058
8,WGQCLYRSAGSV,0.715 ± 0.055
9,WGRCGAVGRGGA,0.693 ± 0.029
10,WGRGAVGPLLGV,0.632 ± 0.016
11,WGRLRFFDCSGF,0.605 ± 0.014
12,WGRRGRRGSWGA,0.683 ± 0.024
13,WGRRNFLPNSPR,0.67 ± 0.049
14,WGSLVRLFGLWR,0.6541 ± 0.0015
15,WGVWYGGAVRVG,0.5 ± 0.052
16,WIPSYMRFCALT,0.788 ± 0.098
17,WIRRWVGVEGPL,0.707 ± 0.079
18,WKNGYITGHRYM,0.66596 ± 0.00041
19,WLGSRGNGGWAE,0.696 ± 0.024
20,WLPSSLPPIVHH,0.662 ± 0.018
21,WMCILESWDSVD,0.706 ± 0.099
22,WPFMGLSAGCLR,0.691 ± 0.028
23,WPLKTMLFGIWV,0.562 ± 0.028

row,Sequence,protein stability index
1,WPSMFFSIEESW,0.887 ± 0.042
2,WPTPRVGIDLEN,0.631 ± 0.05
3,WQMRNGTSRSSL,0.631 ± 0.012
4,WREAVMKRQGGG,0.677 ± 0.014
5,WREGKTCTRKGG,0.57 ± 0.047
6,WRGQRGRIAGPR,0.6694 ± 0.0062
7,WRLGEREGWKAG,0.615 ± 0.0077
8,WRSGGGGGPAGV,0.6762 ± 0.0032
9,WRTRRVVFPNWH,0.666 ± 0.008
10,WSFQTRSVNICI,0.633 ± 0.021
11,WSLSSHCMLMVE,0.5394 ± 0.0051
12,WSPILEHAISDL,0.731 ± 0.017
13,WSPPRAAPRPHP,0.642 ± 0.045
14,WSRSEIGDGSAG,0.742 ± 0.023
15,WSSGDVRRAKEW,0.719 ± 0.078
16,WSVAVVWDALFG,0.699 ± 0.04
17,WTFVRTPERSEI,0.719 ± 0.0089
18,WTIVEALPRGVV,0.679 ± 0.046
19,WTTWAYFSDPTS,0.621 ± 0.021
20,WVGCALEQGGAV,0.71 ± 0.0019
21,WVGPGGAVENKV,0.7013 ± 0.0032
22,WVKTLEKEDHVI,0.759 ± 0.21
23,WVPLGVVGWFGG,0.659 ± 0.038

row,Sequence,protein stability index
1,WVRDDEYTLIFL,0.712 ± 0.035
2,WVTGASRLVGRE,0.766 ± 0.13
3,WVWAIDYEGLLW,0.699 ± 0.054
4,WVWGVLGAVWFG,0.632 ± 0.0091
5,WYTPDCLHCGPA,0.688 ± 0.013
6,YAAGGPLLLCNQ,0.66 ± 0.021
7,YAGGLWEGYRHW,0.636 ± 0.063
8,YCALVSVGVVGG,0.542 ± 0.0036
9,YCFRFGLLIFGD,0.548 ± 0.01
10,YCGGRGGGWEIG,0.682 ± 0.027
11,YCNLSFKINREW,0.696 ± 0.12
12,YCRQVSYERPTK,0.743 ± 0.077
13,YEACQTGASICR,0.7125 ± 0.0013
14,YEGARAPAGGEK,0.689 ± 0.034
15,YERKGRQVGGRT,0.592 ± 0.048
16,YFAASFMSSSGI,0.76 ± 0.078
17,YFALPPSAHRHQ,0.693 ± 0.059
18,YFPSSTLPPPVP,0.675 ± 0.029
19,YFTARLLFFGYI,0.725 ± 0.1
20,YGGFLHALAMGG,0.677 ± 0.0014
21,YGLAGFLWGCGE,0.799 ± 0.051
22,YGRRPGSRGDEH,0.699 ± 0.025
